Results taken from patent US8008547B2, “Glyphosate-N-acetyltransferase (GAT) genes” (E.I. duPont de Nemours, priority 2000, dated 2011).

Test: Standard protocol for determination of kcat and KM (continuous spectrophotometric assay, Acetyl CoA hydrolysis at 235 nm)
Assay type: biochemical
Details: purified protein, about 23° C., 0.2 mM acetyl CoA; for Kcat: 20 mM HEPES pH 6.8, 10% ethylene glycol; for Km: pH 6.8, glyphosate 0.125 to 10 mM
Method in brief: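 KM from initial rates over 0.125–10 mM glyphosate, fitted by Lineweaver-Burke transformation of Michaelis-Menten; kcat/KM computed as kcat divided by KM. Continuous spectrophotometric read of acetyl-CoA hydrolysis at 235 nm.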

Molecule	Kcat [s⁻¹]	Km [µM]
SEQ ID NO: 462: GAT polypeptide (protein, 11_3C3, GAT polypeptide) MIEVKPINAEDTYELRHKILRPNQPIEACMYESDLLRGALHLGGYYRGKLISIASFHQAEHSELQGQKQYQLRGMATLEGYREQKAGSSLIKHAEEILRKRGADLLWCNARTSASGYYKKLGFSEQGEVFDTPPVGPHILMYKRIT	3.567	220
SEQ ID NO: 472: GAT polypeptide (protein, 1_2D2, GAT polypeptide) MIEVKPINAEDTYELRHKILRPNQPLEACMYESDLLRSAFHLGGFYRGKLISIASFHKAEHSELQGQKQYQLRGMATLEGYRDQKAGSSLIRHAEEILRKRGADMLWCNARTSAAGYYKRLGFSEQGEVFDTPPVGPHILMYKRIT	2.07	1200
SEQ ID NO: 476: GAT polypeptide (protein, 1_3A2, GAT polypeptide) MIEVKPINAEDTYELRHRILRPNQPIEACMYESDLLRGAFHLGGFYRGKLISIASFHQAEHSDLQGQKQYQLRGMATLEGYREQKAGSSLIRHAEEILRKKGADMLWCNARTTAAGYYKRLGFSEQGEVFDTPPVGPHILMYKRIT	3.02	800
SEQ ID NO: 463: GAT polypeptide (protein, 11_3C6, GAT polypeptide) MLEVKPINAEDTYELRHKILRPNQPIEACMFESDLLRGAFHLGGFYGGKLISIASFHQAEHSDLEGQKQYQLRGMATLEGYREQKAGSTLIRHAEEILRKRGADLLWCNARTSASGYYKKLGFSEQGEIFDTPPVGPHILMYKRIT	3.074	210
SEQ ID NO: 466: GAT polypeptide (protein, 1_1H1, GAT polypeptide) MIEVKPINAEETYELRHKILRPNQPIEACMYESDLLRGSFHLGGFYRGQLISIASFHKAEHSELQGQKQYQLRGMATLEGFREQKAGSSLIRHAEEILRNKGADLLWCNARTTASGYYKRLGFSEHGEVFETPPVGPHILMYKRIT	4.85	1800
SEQ ID NO: 480: GAT polypeptide (protein, 1_4C5, GAT polypeptide) MIEVKPINAEDTYELRHKILRPNQPIEACMYESDLLRGSFHLGGFYRGKLISIASFHKAEHSDLEGQNQYQLRGMATLEGYREQKAGSTLIRHAEEILRKRGADMLWCNARTSASGYYKRLGFSEHGEIFDTPPVGPHILMYKRLT	4.23	930
SEQ ID NO: 481: GAT polypeptide (protein, 1_4D6, GAT polypeptide) MLEVKPINAEDTYELRHRILRPNQPIEACMYETDLLRGSFHLGGFYRGQLISIASFHKAEHSDLEGQKQYQLRGMATLEGYREQKAGSTLIRHAEQILRKRGADMLWCNARTSAAGYYKRLGFSEQGEVFETPPVGPHILMYKRLT	2.28	1400
SEQ ID NO: 475: GAT polypeptide (protein, 1_2H8, GAT polypeptide) MIEVKPINAEETYELRHKILRPNQPLEACMYETDLLRGAFHLGGFYRGKLISIASFHQADHSELQGQKQYQLRGMATLEGYREQKAGSTLIRHAEQILRKRGADLLWCNARTSAAGYYKKLGFSEHGEIFETPPVGPHILMYKRLT	2.35	480
SEQ ID NO: 467: GAT polypeptide (protein, 1_1H2, GAT polypeptide) MIEVKPINAEDTYELRHRILRPNQPLEACMYESDLLRGSFHLGGFYRGKLISIASFHQAEHSELEGQKQYQLRGMATLEGFREQKAGSSLIRHAEEILRKRGADLLWCNARTTAAGYYKKLGFSEQGEIFDTPPVGPHILMYKRIT	2.73	440
SEQ ID NO: 474: GAT polypeptide (protein, 1_2F8, GAT polypeptide) MLEVKPINAEDTYELRHRILRPNQPLEACMYETDLLRGSFHLGGFYRGKLISIASFHQAEHSELEGQKQYQLRGMATLEGYRDQKAGSSLIRHAEEILRKRGADMLWCNARTTAAGYYKKLGFSEQGEIYDTPPVGPHILMYKKLT	2.68	1900
SEQ ID NO: 468: GAT polypeptide (protein, 1_1H5, GAT polypeptide) MIEVKPINAEDTYEIRHRILRPNQPLEACMYESDLLRGSFHLGGFYRGKLISIASFHQAEHSDLEGQKQYQLRGMATLEGYRDQKAGSSLIRHAEQILRKRGADLLWCNARTTAAGYYKRLGFSEQGEVFDTPPVGPHILMYKKLT	1.57	1500
SEQ ID NO: 470: GAT polypeptide (protein, 1_2B6, GAT polypeptide) MIEVKPINAEETYELRHKILRPNQPLEACMYETDLLRGSFHLGGFYRGKLISIASFHQAEHSELEGQKQYQLRGMATLEGFRDQKAGSSLIKHAEEILRKRGADLLWCNARTSASGYYKKLGFSEQGEIFETPPVGPHILMYKRLT	2.3	580
SEQ ID NO: 469: GAT polypeptide (protein, 1_2A12, GAT polypeptide) MIEVKPINAEDTYELRHRILRPNQPIEACMYESDLLRGSFHLGGFYRGKLISIASFHQAEQSELEGQKQYQLRGMATLEGYRDQKAGSTLIKHAEEILRKKGADLLWCNARTSAAGYYKRLGFSEQGEIFDTPPVGPHILMYKRLT	3.82	1300
SEQ ID NO: 461: GAT polypeptide (protein, 11_3C12, GAT polypeptide) MIEVKPINAEDTYELRHRILRPNQPLEVCMYETDLLRGAFHLGGFYGGKLISIASFHQAEHPDLQGQKQYQLRGMATLEGYRDQKAGSSLIRHAEQLLRKRGADLLWCNARTSASGYYKKLGFSEQGEIFETPPVGPHILMYKRIT	0.8178	–
SEQ ID NO: 464: GAT polypeptide (protein, 11_3D6, GAT polypeptide) MIEVKPINAEDTYELRHRILRPNQPIEVCMYETDLLRGAFHLGGFYRGKLISIASFHQAEHSDLQGQKQYQLRGMATLEGYREQKAGSSLIKHAEQILRKRGADLLWCNARTSASGYYKKLGFSEQGEVFDTPPVGPHILMYKRLT	0.922	–
SEQ ID NO: 465: GAT polypeptide (protein, 1_1G12, GAT polypeptide) MLEVKPINAEDTYELRHRILRPNQPIEVCMYETDLLRGAFHLGGFYGGKLISIASFHQAEHSELQGQKQYQLRGMATLEGYRDQKAGSSLIKHAEEILRKRGADLLWCNARTSASGYYKKLGFSEQGEVFETPPVGPHILMYKRLT	0.9747	–
SEQ ID NO: 277: GAT polypeptide (protein, 10_2B8, GAT polypeptide) MIEVKPINAEDTYEIRHRILRPNQPLEACKYETDLLGGTFHLGGYYRGKLISIASFHQAEHPELEGQKQYQLRGMATLEEYREQKAGSTLIRHAEELLRKKGADLLWCNARTSASGYYKKLGFSEQGEVYDTPPVGPHILMYKKLT	1.807	1100
SEQ ID NO: 278: GAT polypeptide (protein, 10_2C7, GAT polypeptide) MIEVKPINAEDTYEIRHRILRPNQPLEACKYETDLLRGAFHLGGYYRGKLISIASFHQAEHPELEGQKQYQLRGMATLEGYREQKAGSTLIRHAEELLRKKGADLLWCNARTSASGYYKKLGFSEQGEVYDTPPVGPHILMYKKLT	2.25	1400
SEQ ID NO: 477: GAT polypeptide (protein, 1_3D6, GAT polypeptide) MIEVKPINAEDTYELRHKILRPNQPIEACMYESDLLQGSFHLGGFYRGQLISIASFHQAEHSDLQGQKQYQLRGMATLEGFREQKAGSTLIKHAEEILRKKGADLLWCNARTSAAGYYKKLGFSEHGEIFDTPPAGPHILMYKKLT	3.77	3500
SEQ ID NO: 479: GAT polypeptide (protein, 1_3H2, GAT polypeptide) MIEVKPINAEDTYELRHRILRPNQPIEACMYETDLLRGAFHLGGYYRGQLISIASFHKAEHSELQGQKQYQLRGMATLEGYREQKAGSTLIKHAEQLLREKGADMLWCNARTSAAGYYKRLGFSEQGEVFDTPPVGPHILMYKKLT	2.13	700
SEQ ID NO: 471: GAT polypeptide (protein, 1_2C4, GAT polypeptide) MLEVKPINAEETYELRHKILRPNQPIEACMYETDLLRGSFHLGGFYRGQLISIASFHQAEHSDLQGQKQYQLRGMATLEGYREQKAGSTLIKHAEELLRKKGADLLWCNARTTAAGYYKKLGFSEQGEVFDTPPVGPHILMYKKIT	3.22	800
SEQ ID NO: 473: GAT polypeptide (protein, 1_2D4, GAT polypeptide) MIEVKPINAEDTYELRHRILRPNQPIEACMYESDLLRGSFHLGGFYRGKLISIASFHQAEHSDLQGQKQYQLRGMATLEGYREQKAGSSLIKHAEQLLRKKGADMLWCNARTSAAGYYKRLGFSEHGEIFETPPVGPHILMYKRIT	3.03	1200
SEQ ID NO: 478: GAT polypeptide (protein, 1_3F3, GAT polypeptide) MIEVKPINAEETYELRQRILRPNQPIEACMYESDLLRGSFHLGGFYRGQLISIASFHQAEHSELQGQKQYQLRGMATLEGYREQKAGSTLIKHAEEILRKKGADLLWCNARTSAAGYYKRLGFSEHGEIFDTPPVGPHILMYKRIT	2.78	1500
